Results published in the supplement of paper PMC9732359.
± gives the uncertainty stated by the source.

Test: protein stability index of a GFP-peptide fusion (yeast GPS) (PSI 1-4); higher = more stable; sorted into four equal gates, so the index is relative within each strain
Method in brief: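 For each peptide, the protein stability index sums the read frequency in every gate after multiplying it by the gate number. Read frequencies came from plasmids that were PCR-amplified from each gate and Illumina-sequenced, with reads assigned to strains by barcodes. The gates were four equal bins of GFP/Cherry fluorescence ratio applied to mid-log yeast in leucine-free medium carrying a pooled library of tiled 17-residue yeast protein peptides fused downstream of GFP on a Cherry-expressing plasmid.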

SIREQVHMYHKSLALLG [SNF5]
protein stability index (doa10∆): 1.81 ± 0.041
protein stability index (pdr5∆): 1.74 ± 0.041
protein stability index (san1∆): 2.37 ± 0.095
protein stability index (ubr1∆): 2.06 ± 0.045

SFKYLSNNDEDDKDCTI [RGR1]
protein stability index (doa10∆): 2.51 ± 0.05
protein stability index (pdr5∆): 2.41 ± 0.04
protein stability index (san1∆): 2.18 ± 0.055
protein stability index (ubr1∆): 2.62 ± 0.034

LLPTNNGQPLNQNFSLT [GRR1]
protein stability index (doa10∆): 3.06 ± 0.058
protein stability index (pdr5∆): 2.95 ± 0.045
protein stability index (san1∆): 2.81 ± 0.045
protein stability index (ubr1∆): 3.02 ± 0.047

IWDSQKFFIMIVKGNII [POP4]
protein stability index (doa10∆): 1.37 ± 0.069
protein stability index (pdr5∆): 1.44 ± 0.096
protein stability index (san1∆): 1.38 ± 0.15
protein stability index (ubr1∆): 1.32 ± 0.083

IAINFTVNHSEKFPNDV [RPP1]
protein stability index (doa10∆): 2.68 ± 0.068
protein stability index (pdr5∆): 2.87 ± 0.047
protein stability index (san1∆): 2.95 ± 0.051
protein stability index (ubr1∆): 3.02 ± 0.058

NKYANNDFANNLPKEGD [CSL4]
protein stability index (doa10∆): 3.14 ± 0.067
protein stability index (pdr5∆): 3 ± 0.056
protein stability index (san1∆): 2.9 ± 0.065
protein stability index (ubr1∆): 2.4 ± 0.071

NRGVKLEIVYGYALRDV [RPP1]
protein stability index (doa10∆): 2.54 ± 0.084
protein stability index (pdr5∆): 2.64 ± 0.077
protein stability index (san1∆): 2.46 ± 0.092
protein stability index (ubr1∆): 3.04 ± 0.065

WYKVAKNVGNKSPEQCI [SWI3]
protein stability index (doa10∆): 2.98 ± 0.097
protein stability index (pdr5∆): 3.27 ± 0.07
protein stability index (san1∆): 3.07 ± 0.093
protein stability index (ubr1∆): 3.08 ± 0.05

GFFENIETEFLLFTVKL [IRR1]
protein stability index (doa10∆): 3.12 ± 0.077
protein stability index (pdr5∆): 3.2 ± 0.11
protein stability index (san1∆): 3.24 ± 0.049
protein stability index (ubr1∆): 3.12 ± 0.07

EFEKKLQETLNKSTSSE [YIL149C/MLP2]
protein stability index (doa10∆): 2.95 ± 0.12
protein stability index (pdr5∆): 2.66 ± 0.11
protein stability index (san1∆): 3.17 ± 0.14
protein stability index (ubr1∆): 3.27 ± 0.15

LLRALKTNEESAKMILL [PRP8]
protein stability index (doa10∆): 3.05 ± 0.099
protein stability index (pdr5∆): 2.98 ± 0.1
protein stability index (san1∆): 2.86 ± 0.071
protein stability index (ubr1∆): 2.92 ± 0.037

EFLINEGTPINNVYFAA [RPN14]
protein stability index (doa10∆): 2.33 ± 0.07
protein stability index (pdr5∆): 2.17 ± 0.052
protein stability index (san1∆): 1.91 ± 0.087
protein stability index (ubr1∆): 1.94 ± 0.047

EGAARGTSVYLVDKRID [DIS3]
protein stability index (doa10∆): 3.38 ± 0.17
protein stability index (pdr5∆): 3.33 ± 0.14
protein stability index (san1∆): 3.13 ± 0.086
protein stability index (ubr1∆): 3.08 ± 0.12

CPEEFAESMCQELELPG [SNF5]
protein stability index (doa10∆): 3.25 ± 0.073
protein stability index (pdr5∆): 3 ± 0.074
protein stability index (san1∆): 2.71 ± 0.07
protein stability index (ubr1∆): 3.03 ± 0.075

DKYHPGYFGKVGMRYFH [RPL28]
protein stability index (doa10∆): 3.23 ± 0.062
protein stability index (pdr5∆): 2.99 ± 0.072
protein stability index (san1∆): 2.99 ± 0.083
protein stability index (ubr1∆): 2.96 ± 0.044

TYLNEVLEKDAAIVKKY [YGR119C/NUP57]
protein stability index (doa10∆): 3.27 ± 0.11
protein stability index (pdr5∆): 3.37 ± 0.093
protein stability index (san1∆): 2.99 ± 0.076
protein stability index (ubr1∆): 3.08 ± 0.069

NVMLNIYPRTVIDIEIH [SKI6]
protein stability index (doa10∆): 1.35 ± 0.039
protein stability index (pdr5∆): 1.74 ± 0.046
protein stability index (san1∆): 1.58 ± 0.11
protein stability index (ubr1∆): 1.76 ± 0.034

SGNNNGGFTNLTSQAPQ [YDL088C/ASM4]
protein stability index (doa10∆): 3.24 ± 0.071
protein stability index (pdr5∆): 3.31 ± 0.053
protein stability index (san1∆): 3.16 ± 0.054
protein stability index (ubr1∆): 3.29 ± 0.042

FLLVPSKQVQVSQQPLS [ECM29]
protein stability index (doa10∆): 1.81 ± 0.092
protein stability index (pdr5∆): 1.92 ± 0.072
protein stability index (san1∆): 1.42 ± 0.11
protein stability index (ubr1∆): 2.17 ± 0.043

SLLDAEEERRKKRESGV [SNF2]
protein stability index (doa10∆): 3.47 ± 0.08
protein stability index (pdr5∆): 3.32 ± 0.1
protein stability index (ubr1∆): 3.47 ± 0.047

FNRENKVSPADAAKKAL [RPS26A]
protein stability index (doa10∆): 3.42 ± 0.13
protein stability index (pdr5∆): 3.01 ± 0.14
protein stability index (san1∆): 3.17 ± 0.048
protein stability index (ubr1∆): 3.4 ± 0.073

ELTKSLSIAFENGDYAA [RPN12]
protein stability index (doa10∆): 3.17 ± 0.16
protein stability index (pdr5∆): 3 ± 0.11
protein stability index (san1∆): 3.24 ± 0.073
protein stability index (ubr1∆): 3.24 ± 0.12

SRGFEVMYNGHTGKKLM [RPB2]
protein stability index (doa10∆): 1.97 ± 0.12
protein stability index (pdr5∆): 3.33 ± 0.25
protein stability index (san1∆): 2.71 ± 0.13

INDPTNKEYTLVHGIFG [SIN4]
protein stability index (doa10∆): 2.1 ± 0.09
protein stability index (pdr5∆): 2.21 ± 0.091
protein stability index (san1∆): 2.25 ± 0.13
protein stability index (ubr1∆): 1.94 ± 0.19

KILAGLHDTQIEGKLHM [RPN10]
protein stability index (doa10∆): 3.31 ± 0.18
protein stability index (pdr5∆): 3.46 ± 0.18
protein stability index (ubr1∆): 2.98 ± 0.22

IEDPNLSSNITFDGKPT [YMR153W/NUP53]
protein stability index (doa10∆): 3.02 ± 0.069
protein stability index (pdr5∆): 3.06 ± 0.056
protein stability index (san1∆): 3.12 ± 0.043
protein stability index (ubr1∆): 3.17 ± 0.05

PSHYPHPYEYEIDHQEY [RRP6]
protein stability index (doa10∆): 2.41 ± 0.055
protein stability index (pdr5∆): 2.58 ± 0.055
protein stability index (san1∆): 2.17 ± 0.078
protein stability index (ubr1∆): 2.27 ± 0.035

LDLAGPLLAQLFKTLFK [RPB2]
protein stability index (doa10∆): 2.63 ± 0.038
protein stability index (pdr5∆): 1.25 ± 0.037
protein stability index (san1∆): 1.25 ± 0.078
protein stability index (ubr1∆): 1.18 ± 0.031

ILVMETSEEQTKFLAKN [SWP82]
protein stability index (doa10∆): 3.01 ± 0.094
protein stability index (pdr5∆): 2.91 ± 0.11
protein stability index (san1∆): 2.94 ± 0.048
protein stability index (ubr1∆): 3 ± 0.092

VCAKLFGNIQKVVNFWL [RPO21]
protein stability index (doa10∆): 2.03 ± 0.098
protein stability index (pdr5∆): 1.93 ± 0.07
protein stability index (san1∆): 1.95 ± 0.11
protein stability index (ubr1∆): 1.78 ± 0.074

DKKSCSVDDVLSALDHI [DPB4]
protein stability index (doa10∆): 3.29 ± 0.086
protein stability index (pdr5∆): 3.23 ± 0.089
protein stability index (san1∆): 3.31 ± 0.054
protein stability index (ubr1∆): 3.22 ± 0.044

HTSIRETLENGETRMKM [SMC2]
protein stability index (doa10∆): 2.65 ± 0.11
protein stability index (pdr5∆): 2.79 ± 0.13
protein stability index (san1∆): 2.85 ± 0.12
protein stability index (ubr1∆): 2.95 ± 0.083

VLILLHAERDLALAETL [SRP68]
protein stability index (doa10∆): 2.3 ± 0.06
protein stability index (pdr5∆): 3.04 ± 0.089
protein stability index (san1∆): 2.96 ± 0.058
protein stability index (ubr1∆): 3.11 ± 0.057

DTETFDTVNSALENDVA [YML103C/NUP188]
protein stability index (pdr5∆): 3.63 ± 0.23
protein stability index (san1∆): 3.16 ± 0.2
protein stability index (ubr1∆): 2.69 ± 0.17

KMLKIWTMAFRTMDDIK [ECM29]
protein stability index (doa10∆): 2.03 ± 0.11
protein stability index (pdr5∆): 1.76 ± 0.1
protein stability index (san1∆): 2.06 ± 0.12
protein stability index (ubr1∆): 1.96 ± 0.075

EKKLMQDNKQLYQIWIV [YDL116W/NUP84]
protein stability index (doa10∆): 2.06 ± 0.075
protein stability index (pdr5∆): 1.83 ± 0.078
protein stability index (san1∆): 2.72 ± 0.15
protein stability index (ubr1∆): 1.44 ± 0.072

VSSKPSKPESSVLQLIV [MED1]
protein stability index (doa10∆): 2.73 ± 0.13
protein stability index (pdr5∆): 3.28 ± 0.11
protein stability index (san1∆): 2.94 ± 0.073
protein stability index (ubr1∆): 3.27 ± 0.098

QDEEQTEHLTELSDNEE [YCG1]
protein stability index (doa10∆): 3.29 ± 0.09
protein stability index (pdr5∆): 3.37 ± 0.075
protein stability index (san1∆): 3.33 ± 0.054
protein stability index (ubr1∆): 3.02 ± 0.062

SSSKSMINDENYIINDI [SRB8]
protein stability index (doa10∆): 2.92 ± 0.064
protein stability index (pdr5∆): 2.82 ± 0.052
protein stability index (san1∆): 2.63 ± 0.074
protein stability index (ubr1∆): 2.83 ± 0.04

HDSSNGLFQVLHNFESV [NUT1]
protein stability index (doa10∆): 3.16 ± 0.064
protein stability index (pdr5∆): 3.15 ± 0.064
protein stability index (san1∆): 2.79 ± 0.07
protein stability index (ubr1∆): 3.242 ± 0.031

YVKAVSDKAQLNVVMKN [SMC4]
protein stability index (doa10∆): 2.1 ± 0.074
protein stability index (pdr5∆): 2.07 ± 0.063
protein stability index (san1∆): 1.6 ± 0.11
protein stability index (ubr1∆): 2.19 ± 0.053

EARLRNLTYSSGLFVDV [RPB2]
protein stability index (doa10∆): 2.34 ± 0.057
protein stability index (pdr5∆): 2.25 ± 0.047
protein stability index (san1∆): 1.46 ± 0.075
protein stability index (ubr1∆): 1.79 ± 0.028

SDIPVSENVFEGLTYKY [SSN3]
protein stability index (doa10∆): 1.82 ± 0.078
protein stability index (pdr5∆): 1.89 ± 0.1
protein stability index (ubr1∆): 1.98 ± 0.042

DNGESAFRTLRLARSEK [RPL13A]
protein stability index (doa10∆): 3.39 ± 0.24
protein stability index (pdr5∆): 3.51 ± 0.15
protein stability index (ubr1∆): 3.31 ± 0.084

HQNESSAASIPPQQTYH [RPN4]
protein stability index (doa10∆): 2.57 ± 0.054
protein stability index (pdr5∆): 2.89 ± 0.074
protein stability index (san1∆): 2.53 ± 0.066
protein stability index (ubr1∆): 2.69 ± 0.057

MTLNRKCVVIHNGSHRT [ARP7]
protein stability index (doa10∆): 2.59 ± 0.051
protein stability index (pdr5∆): 2.74 ± 0.062
protein stability index (san1∆): 2.54 ± 0.059
protein stability index (ubr1∆): 2.66 ± 0.045

NSKNDSANVELFKRDCN [YCS4]
protein stability index (doa10∆): 2.75 ± 0.071
protein stability index (pdr5∆): 3.05 ± 0.089
protein stability index (san1∆): 3.25 ± 0.12
protein stability index (ubr1∆): 3.17 ± 0.07

SSIDRGFGRCETRRKTT [RET1]
protein stability index (doa10∆): 2.41 ± 0.071
protein stability index (pdr5∆): 2.38 ± 0.12
protein stability index (san1∆): 2.21 ± 0.13
protein stability index (ubr1∆): 2.52 ± 0.05

SSFEKFNDSQAIVCYIL [SRP72]
protein stability index (doa10∆): 2.43 ± 0.046
protein stability index (pdr5∆): 2.53 ± 0.047
protein stability index (san1∆): 2.42 ± 0.042
protein stability index (ubr1∆): 2.63 ± 0.031

LEKERSILDDIKLSLKD [SMC4]
protein stability index (pdr5∆): 2.85 ± 0.14
protein stability index (san1∆): 2.43 ± 0.17
protein stability index (ubr1∆): 2.91 ± 0.11

IELKTDWVRFLALALGI [RPN1]
protein stability index (doa10∆): 1.38 ± 0.13
protein stability index (pdr5∆): 1.37 ± 0.077
protein stability index (san1∆): 1.41 ± 0.12
protein stability index (ubr1∆): 1.13 ± 0.067

KELEPWDLQLQEKESQI [SMC4]
protein stability index (doa10∆): 3.16 ± 0.12
protein stability index (pdr5∆): 3.22 ± 0.13
protein stability index (san1∆): 3.21 ± 0.12
protein stability index (ubr1∆): 3.36 ± 0.12
